Common to all, as to test: cell-based or functional assay
The target of assay [1] is HA of Influenza H3N2 (A/Swine/St. Oedenrode/1996), on infected MDCK cells or on virus (Influenza A virus H3N2 A/Swine/St. Oedenrode/1996 (host Swine)).
Assay [2] has as its target HA of high pathogenic H7N7 (A/Ch/Neth/621557/03), on infected MDCK cells or on virus (Influenza A virus H7N7 A/Ch/Neth/621557/03 (host Chicken)).
The target of assay [3] is HA of H5N1 A/turkey/Turkey/05 virus (Influenza A virus H5N1 A/turkey/Turkey/05).
Assay [4] addresses HA of low pathogenic H7N1 (A/Ch/Italy/1067/1999), on infected MDCK cells or on virus (Influenza A virus H7N1 A/Ch/Italy/1067/1999 (host Chicken)).
For assay [5], the target named is HA of Influenza H1N1 (A/Neth/602/2009), on infected MDCK cells or on virus (Influenza A virus H1N1 A/Neth/602/2009 (host Human)).

Where only a bound is given, the exact number is not on record here.

Turning to CR8020 (antibody), the IC50, in vitro virus neutralization on MDCK cells in assay [1] was more than 15 µg/mL; in assay [2] it was 0.6 µg/mL; in assay [3], more than 15 µg/mL; in assay [4], more than 15 µg/mL; in assay [5], more than 15 µg/mL.

The values above are taken from patent publication US20150010566A1.
